Measured values as given in patent US20250152729A1 (CANCER RESEARCH TECHNOLOGY, published 2025).

T1: cynomolgus SEMA4A expressed on expi293 cells (UniProt ID G7NV79) (cynomolgus, UniProt Q9H3S1 33-761 (human entry))
T1 construct: Transient transfection in expi293 cells; also called cyno SEMA4A
T1 chain: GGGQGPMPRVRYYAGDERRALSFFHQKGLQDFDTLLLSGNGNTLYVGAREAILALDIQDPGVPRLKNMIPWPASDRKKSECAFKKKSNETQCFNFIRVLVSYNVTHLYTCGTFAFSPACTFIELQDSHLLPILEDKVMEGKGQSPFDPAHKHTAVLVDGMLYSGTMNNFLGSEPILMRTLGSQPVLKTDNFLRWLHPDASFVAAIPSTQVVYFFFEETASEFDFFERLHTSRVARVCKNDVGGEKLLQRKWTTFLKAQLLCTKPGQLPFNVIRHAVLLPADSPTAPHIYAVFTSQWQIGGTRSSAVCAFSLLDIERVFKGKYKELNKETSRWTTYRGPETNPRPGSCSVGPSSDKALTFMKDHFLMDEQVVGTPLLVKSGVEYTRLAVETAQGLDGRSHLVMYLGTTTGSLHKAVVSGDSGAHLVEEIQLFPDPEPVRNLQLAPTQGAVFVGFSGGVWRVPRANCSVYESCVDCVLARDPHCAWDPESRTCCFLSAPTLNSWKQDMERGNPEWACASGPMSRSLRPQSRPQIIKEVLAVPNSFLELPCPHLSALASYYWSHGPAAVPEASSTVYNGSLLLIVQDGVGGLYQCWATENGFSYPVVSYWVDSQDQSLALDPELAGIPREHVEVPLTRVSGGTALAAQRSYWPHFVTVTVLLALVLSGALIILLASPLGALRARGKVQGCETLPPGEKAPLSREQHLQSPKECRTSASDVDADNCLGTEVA

B1: 5Hg2-5Lg6 human Alya IgG1 (antibody, V domains shown)
VH: QVQLVQSGAEVKKPGASVKVSCKASGYTFTDYWMHWVRQAPGQRLEWMGAIDTSDSYTSYNQKFKGRVTITRDTSASTAYMELSSLRSEDTAVYYCARDYGNFYYYAMDYWGQGTLVTVSS
VL: SYELTQPSSVSVSPGQTARITCRSSTGAVTTSNYANWFQQKPGQAPVLVIYGTNNRAPGIPERFSGSSSGTTVTLTISGAQVEDEADYYCALWYSNHWVFGGGTKLTVL
notes: Humanised 5E3; human IgG1 Alya constant (239iCys, S442C, EU), lambda light chain; purified, unconjugated
B2: 5Hg4-5Lg2 human Alya IgG1 (antibody, V domains shown)
VH: QVQLVQSGSELKKPGASVKVSCKASGYTFTDYWMHWVRQAPGQGLEWMGAIDTSDSYTSYNQKFKGRFVFSLDTSVSTAYLQICSLKAEDTAVYYCARDYGNFYYYAMDYWGQGTLVTVSS
VL: QAVVTQEPSLTVSPGGTVTLTCRSSTGAVTTSNYANWFQQKPGQAPRTLIYGTNNRAPWTPARFSGSLLGGKAALTLLGAQPEDEAEYYCALWYSNHWVFGGGTKLTVL
notes: as for B1
B3: 5Hg5-5Lg2 human Alya IgG1 (antibody, V domains shown)
VH: EVQLVQSGAEVKKPGESLRISCKGSGYSFTDYWMHWVRQMPGKGLEWMGAIDTSDSYTSYNQKFKGQVTISADKSISTAYLQWSSLKASDTAMYYCARDYGNFYYYAMDYWGQGTLVTVSS
VL: QAVVTQEPSLTVSPGGTVTLTCRSSTGAVTTSNYANWFQQKPGQAPRTLIYGTNNRAPWTPARFSGSLLGGKAALTLLGAQPEDEAEYYCALWYSNHWVFGGGTKLTVL
notes: Humanised 5E3; human IgG1 Alya constant (239iCys, S442C, EU), lambda light chain; purified, unconjugated; also called 5HE5/5Lg2

Target: T1, cynomolgus SEMA4A expressed on expi293 …
Assay: Mirrorball direct binding, dilution series on expi293 cells transiently transfected with cyno SEMA4A, anti-human Alexa Fluor 647
Source text: Hits from the primary screening were re-formatted into the human Alya IgG1 vector and re-expressed and purified as described in section 4.1. In addition, a single clone was identified that contained an Asparagine deamidation motif (Asn Gly) within its VHCDR2. This potential sequence liability was de-risked by synthesising de novo two clonal variant VH genes (Asn Ala and Gln Gly) and cloning these sequences into the human Alya IgG1 expression vector. To determine the specificity profile of each purified human Alya IgG1, a dilution series was tested for binding to human SEMA4A, mouse SEMA4A, cyno SEMA4A, human SEMA4B and mock transfected cells (transient transfections set up in expi 293 cells.) The five assays employed methods described in section 2.3, using the appropriate cells and substituting the un-purified scFv periplasmic preparation with the recombinant human Alya IgG1 dilution series. Data was analysed as Count x median mean intensity (x FLU).

Binder	binding result
B1	binds
B2	binds
B3	binds
